Measured values published in EP3854411A1 (Rise Biopharmaceuticals, Inc. (Beijing), dated 2021).

Legend:
[1] = target: T1, CXCR1 (UniProt P25024 1-350, limits assumed); experiment: indirect ELISA, ONCO P8-CXCR1 complex formation
T1 construct: The receptor preparation used in the ELISA is not described; also called IL-8R
T1 sequence (looked up): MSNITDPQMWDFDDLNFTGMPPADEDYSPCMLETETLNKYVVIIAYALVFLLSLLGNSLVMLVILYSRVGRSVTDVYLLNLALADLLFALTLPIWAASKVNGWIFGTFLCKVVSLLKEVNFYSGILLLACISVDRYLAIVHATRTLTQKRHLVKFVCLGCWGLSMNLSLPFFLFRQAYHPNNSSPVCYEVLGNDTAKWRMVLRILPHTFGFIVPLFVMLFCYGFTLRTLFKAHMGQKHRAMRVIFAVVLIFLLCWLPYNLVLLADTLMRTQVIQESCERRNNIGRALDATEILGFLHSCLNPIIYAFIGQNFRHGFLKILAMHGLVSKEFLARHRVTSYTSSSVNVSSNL

[2] = target: T2, CXCR2 (UniProt P25025 1-360, limits assumed); experiment: indirect ELISA, ONCO P8-CXCR2 complex formation
T2 construct: The receptor preparation used in the ELISA is not described; also called IL-8R
T2 sequence (looked up): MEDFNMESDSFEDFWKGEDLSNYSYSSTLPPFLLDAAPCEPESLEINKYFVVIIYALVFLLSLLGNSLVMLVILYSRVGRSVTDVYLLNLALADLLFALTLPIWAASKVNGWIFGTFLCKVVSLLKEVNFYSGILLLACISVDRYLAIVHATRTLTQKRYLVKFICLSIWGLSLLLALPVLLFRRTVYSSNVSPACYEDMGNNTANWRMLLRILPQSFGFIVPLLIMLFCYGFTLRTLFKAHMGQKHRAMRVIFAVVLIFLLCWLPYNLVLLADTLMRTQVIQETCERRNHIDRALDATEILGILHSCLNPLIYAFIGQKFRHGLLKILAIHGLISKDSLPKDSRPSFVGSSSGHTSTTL

B1: ONCO P-8 (peptide)
chain: GSKELRCQCIRSYSKPFHPKFIKELRVIPASQFCANTEIIVKLSDGRELCLDPKENWVQRVVEKFLKRAENS
notes: also called chemokine receptor antagonistic modified peptide
Question: Which results are given for B1?
Answer: Kd [1]: 286 nM; Kd [2]: 139 nM
